Laboratory results published in patent US20220242943A1.

What was measured:
human PDGF-AB (human) [1] = molecular target: human PDGF-AB (human) (UniProt P04085); assay: cell-based or functional assay
human PDGF-BB (human) [2] = molecular target: human PDGF-BB (human) (UniProt P01127); assay: cell-based or functional assay
[3] = molecular target: Cynomolgus monkey PDGF-BB (cynomolgus monkey (Macaca fascicularis)); assay: SPR 25C, mAb captured on anti-hFc; analyte Monkey PDGF-BB homodimer (Kingfisher)
Cynomolgus monkey PDGF-BB (cynomolgus monkey (Macaca fascicularis)), sequence (chain, as listed by the source): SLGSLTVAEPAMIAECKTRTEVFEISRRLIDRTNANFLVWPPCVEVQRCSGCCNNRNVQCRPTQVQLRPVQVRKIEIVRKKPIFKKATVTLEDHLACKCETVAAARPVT

human PDGF-BB (human) [4] = molecular target: human PDGF-BB (human) (UniProt P01127); assay: SPR 25C, mAb captured on anti-hFc; analyte Human PDGF-BB homodimer (R&D)
human PDGF-AB (human) [5] = molecular target: human PDGF-AB (human) (UniProt P04085); assay: blocking ELISA: 100 pM Biot-PDGF-AB on 1 ug/ml hPDGFRb-mmH; IC50 cell NB (Non-Blocker)
human PDGF-BB (human) [6] = molecular target: human PDGF-BB (human) (UniProt P01127); assay: blocking ELISA: 60 pM Biot-PDGF-BB on 1 ug/ml hPDGFRb-mmH; IC50 cell NB (Non-Blocker)
[7] = molecular target: human PDGFRβ on HEK293/SRE-luc/hPDGFRβ cells (human) (UniProt P09619); assay: cell-based or functional assay
human PDGFRβ on HEK293/SRE-luc/hPDGFRβ cells (human), sequence (P09619 33-1106): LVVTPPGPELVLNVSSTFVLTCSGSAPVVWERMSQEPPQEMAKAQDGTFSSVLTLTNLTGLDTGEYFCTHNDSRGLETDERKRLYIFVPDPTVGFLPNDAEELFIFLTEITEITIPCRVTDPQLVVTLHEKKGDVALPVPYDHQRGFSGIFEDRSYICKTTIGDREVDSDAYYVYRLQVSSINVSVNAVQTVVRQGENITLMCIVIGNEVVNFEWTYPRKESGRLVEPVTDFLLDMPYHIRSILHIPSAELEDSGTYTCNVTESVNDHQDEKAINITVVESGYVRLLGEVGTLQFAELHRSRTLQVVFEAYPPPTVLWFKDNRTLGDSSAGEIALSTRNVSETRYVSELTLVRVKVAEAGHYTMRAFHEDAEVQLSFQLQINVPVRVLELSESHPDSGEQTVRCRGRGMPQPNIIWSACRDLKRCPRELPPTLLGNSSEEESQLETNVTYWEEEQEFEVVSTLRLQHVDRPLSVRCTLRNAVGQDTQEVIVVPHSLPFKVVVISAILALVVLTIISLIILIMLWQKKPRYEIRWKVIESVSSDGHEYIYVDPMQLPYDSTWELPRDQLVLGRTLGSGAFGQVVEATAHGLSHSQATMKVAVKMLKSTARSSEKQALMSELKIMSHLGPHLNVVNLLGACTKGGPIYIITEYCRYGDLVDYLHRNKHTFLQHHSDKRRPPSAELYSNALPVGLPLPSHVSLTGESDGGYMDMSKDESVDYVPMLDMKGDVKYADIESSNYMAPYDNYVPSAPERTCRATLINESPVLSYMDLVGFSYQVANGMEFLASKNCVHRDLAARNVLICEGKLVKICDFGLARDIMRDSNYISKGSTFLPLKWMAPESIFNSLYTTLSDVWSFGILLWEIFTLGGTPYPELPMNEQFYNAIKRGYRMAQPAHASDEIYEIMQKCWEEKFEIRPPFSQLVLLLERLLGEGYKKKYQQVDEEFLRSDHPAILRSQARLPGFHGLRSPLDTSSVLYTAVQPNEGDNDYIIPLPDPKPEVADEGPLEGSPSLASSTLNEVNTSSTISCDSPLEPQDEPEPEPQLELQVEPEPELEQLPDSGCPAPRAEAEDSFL

| Substance | A647 Intensity, internalization in NHLF, pre-blocking Ab: NA (human PDGF-AB (human) [1]) | A647 Intensity, internalization in PASMC, pre-blocking Ab: NA (human PDGF-AB (human) [1]) | Fold Change vs REGN1945, internalization in NHLF, pre-blocking Ab: NA (human PDGF-AB (human) [1]) [fold] | Fold Change vs REGN1945, internalization in PASMC, pre-blocking Ab: NA (human PDGF-AB (human) [1]) [fold] | A647 Intensity, internalization in NHLF, pre-blocking Ab: NA (human PDGF-BB (human) [2]) | A647 Intensity, internalization in PASMC, pre-blocking Ab: NA (human PDGF-BB (human) [2]) | EC50 of subsequent PDGF-BB calcium flux in PASMC after 3 hr pre-treatment with antibody-PDGFBB (10:1 nM) (human PDGF-BB (human) [2]) [nM] | Fold Change vs REGN1945, internalization in NHLF, pre-blocking Ab: NA (human PDGF-BB (human) [2]) [fold] | Fold Change vs REGN1945, internalization in PASMC, pre-blocking Ab: NA (human PDGF-BB (human) [2]) [fold] | Max-Min at 5 nM PDGF-BB (RFU), PASMC after 3 hr pre-treatment with antibody-PDGFBB (human PDGF-BB (human) [2]) [RFU] | Max-Min at 5 nM PDGF-BB (RFU), PASMC after 24 hr pre-treatment with antibody-PDGFBB (human PDGF-BB (human) [2]) [RFU] | Max-Min at 5 nM PDGF-BB (RFU), PASMC after 48 h pre-treatment with antibody-PDGFBB (human PDGF-BB (human) [2]) [RFU] | 30nM mfPDGF-BB (KingFisher) Bound (RU) [3] [RU] | 30nM hPDGF-BB (R&D) Bound (RU) (human PDGF-BB (human) [4]) | % blocking at 100 nM Ab (human PDGF-AB (human) [5]) [%] | % blocking at 100 nM Ab (human PDGF-BB (human) [6]) [%] | EC50 of ligand, SRE-luciferase in HEK293/SRE-luc/hPDGFRβ cells [7] [nM] |
| --- | --- | --- | --- | --- | --- | --- | --- | --- | --- | --- | --- | --- | --- | --- | --- | --- | --- |
| REGN1945 (antibody) | 624000 | 464000 | 1 | 1 | 573000 | 483000 | 0.6 | 1 | 1 | 3950 | 1460 | 492 | 6.8 | 6.7 | 21 | -6 | – |
| human PDGF-AB (from UniProt P04085 87-211) (ligand) | – | – | – | – | – | – | – | – | – | – | – | – | – | – | – | – | 8.6 |
| isotype - mIgG (REGN 751) (antibody) | – | – | – | – | – | – | – | – | – | – | – | – | – | – | 18 | -5 | – |
